Laboratory results reported in the DeepSol protein solubility set.

Test: soluble on expression in E. coli; label from the status in PepcDB or PDB records

Sequence | soluble on expression in E. coli
MSHRKALLIHNGNAANKNIEKALGAVVPVLSHHLDEVIIKQTKKKDHAYHFCRSIDDSVDTVFILGGDGTIHQCINAISALERKPAVGILPGGTSNDFSRVLGIPQNLAKAAEALMAGKKTSVDVCQMNDRYFLNFWGIGLIAETSNQINETEKALLGKISYFTSALRTVSSAASFPMTLKIDGEEIKEEAVMLLVMNGQYIGTNRIPLPDASIEDGLLDVLICRNTNLTALRELMSMEQGSIDRFTGELSYVQASRIEIETDTAKKADMDGEVYTHTPAVIQVLPQHIDMLVPANE | soluble
MSIEQTLSQYLPSHPKPQGVTFTYGTAGFRMKADKLDYVTFTVGIIASLRSKYLQGKTVGVMITASHNPPEDNGVKVVDPLGSMLESSWEKYATDLANASPSPSNDSEGEKNSLVEVIKNLVSDLKIDLSIPANVVIARDSRESSPALSMATIDGFQSVPNTKYQDFGLFTTPELHYVTRTLNDPDFGKPTEDGYYSKLAKSFQEIYTICESNNEKIDITIDAANGVGAPKIQELLEKYLHKEISFTVVNGDYKQPNLLNFDCGADYVKTNQKLPKNVKPVNNKLYASFDGDADRLICYYQNNDNKFKLLDGDKLSTLFALFLQQLFKQIDPTKISLNIGVVQTAYANGSSTKYVEDVLKIPVRCTPTGVKHLHHEAENFDIGVYFEANGHGTVIFNPEAEKKIFDYKPNNDNEAKAIKVLQNFSQLINQTVGDAISDLLAVLIVVHYLKLSPSDWDNEYTDLPNKLVKVIVPDRSIFKTTNAERTLVEPKGMQDEIDKLVAQYPNGRSFVRASGTEDAVRVYAEADTQNNVEELSKAVSELVK | soluble
MSIETFTPTPLLFTPGAANKVKTLIDEEGNPRLKLRVFVTGGGCSGFQYGFTFDEDIADDDTVIERDGVGLVVDPMSFQYLAGSEVDYQEGLEGSRFVIKNPNAATTCGCGQSFSI | not soluble
MSIKLFSLAKELNVGVGSLAGFLRKKGFDVEDNNPNVRIENEEFDLLLTEFGKSLPKGEAERIRKKFVKQKQGTPASAPSAKEETAGMAAKEAQVIATEVPQDMRPRFTIKGKVETEKPAEPVPSPKDKEPDTVREDKPARETAPVKEETKVVPVKEDKPKEEKPKQEEPKREEPKPEEPVQAAPVAKPVEKPVDKPQQPVMTQKPQEAETPPPAQEMEKKEDTEEVFRLKTNTQEPQVKVVGKIDLSSINSSTRPKKKTKEDRQREQNDADGKKKRKRINKAAVDVKKEAAKVSGEQGKRNAGGGNHSSGNKNNNRPAQQQSNASGGRKNNKRQSLPPKVEISDEDVQRQVKETLARLTTKKTSTTLGRGAKYRKDKRDAASRAAQDAMELNSEEQHTLKLTEFVTVSDLSNMMDVPVNEVIATCMSIGMMVGINQRLDAETINIVAEEFGFKTEFVSADLVEAIAPEEDNEEDLVA | not soluble
MSILQKLENSAAAAVKALYGTDPMEGQIQLQKTKREFKGHLTLVVFPFVKMSRKSPEATATEIGEWLLANESAVSAIEVVKGFLNLTIAPRVWLELLNEIRADINFGHKVATEDSPLVMVEYSSPNTNKPLHLGHVRNNLLGYSLSEIMKANGYRVVKTNIVNDRGIHICKSMLAWQKWGDGVTPEKAGKKGDHLIGDFYVLFDKHYKAELNSLMAEGKSKEEAEAASTLMAEAREMLRLWEAGDEKVVDLWRTMNQWVYDGFDATYKMMGVDFDKIYYESETYLVGKEEVLRGLEEGLFVKHSDGSVWADLTKDGLDEKLLLRADGTSVYMTQDIGTAKMRFNDYPINRMIYVVGNEQNYHFQVLSILLDRLGFEFGKGLVHFSYGMVELPEGKMKSREGTVVDADDLMDEMIRTAAEIAAEAGKAAEMDEEESREVARIVGLGSLKYFILKVDPRKNMTFNPKESIDFNGNTGSFVQYTYARIRSLMRRAEAAGYDIPSQLPTDLPLSEKEEALIQKVSEYAEVVSEAGHSYSPALIANYIYDLVKEYNQFYHDFSVLKEEDERIRAFRLALSEVVALTMRKGFALLGIEMPERM | not soluble
MSIQRFTPEFKAEAVRQVIERGYSVAEIAAGFGVSTHSLYKWVKAVTPDKSEKQASELLEAKSEILRLRAQMRRLEEERDILKKPSGSSHTAWRPLEHHHHHH | not soluble
MSISTEQTILTQLKTIRTKRASTTGEQKWLQQHITEANLRRLLPDISIVGLHLLSELEAGPQTGIDLATNLGVTRGGVTRAAKRLVTQGLIGSFQQPDDHKKIFYRLTPSGRKLARYHDKMHATRNHQAITLLHEHYSPAELAVIQRFLADLTDYEA | not soluble
MSKATYKERAATHPSPVAAKLFNIMHEKQTNLCASLDVRTTKELLELVEALGPKICLLKTHVDILTDFSMEGTVKPLKALSAKYNFLLFENRKFADIGNTVKLQYSAGVYRIAEWADITNAHGVVGPGIVSGLKQAAEEVTKEPRGLLMLAELSCKGSLATGEYTKGTVDIAKSDKDFVIGFIAQRDMGGRDEGYDWLIMTPGVGLDDKGDALGQQYRTVDDVVSTGSDIIIVGRGLFAKGRDAKVEGERYRKAGWEAYLRRCGQQN | soluble
MSKCSADETPVCCCMDVGTIMDNSDCTASYSRVFATRAEAEETLAALTEKARSVESEPCQITPTFTEESEGVRLDIDFVFACEAETLIFQLGLRLEHHHHHH | not soluble
MSKDVSIGWMYEGAKGNVHREDYLLGKKVDKNFEKYSDVVNAQKAEAIDSIVGTRAVFNSGQSTGLKTSSLQKDIIKSEDPFVAVKVREETKRREIMDNPLTKMRLQAALKSMMTSKAEKSKEKKSKKDKKKKKKKRSSSSSDESSDERVERKRRRSPSPKRRRRPSEKPRKRSRSPRRERPRSPKRSREESRKLSRKPSSSRSKSPRRSREDPRKVARKPSRSRSRSAERLRRKSRSPRRSREEPRKMSRSRSRSADKASSSRQFDSHIPRHLQQQRSRHDSSSGSESEHETRSSHRRRNSDDDERQDPRKKSYGLVEMRKRTAEEREEESRAPTKEYKLVKIPTGRGTGNTPREPRRALSEAEKAARLAEMQQDNVKWRDEIRERNVTKGRKEDDEEKEEADKNGYAPSFIRSQMREACDDMTVEKRLQSNKRGVQRAHGYMDRSFAKK | not soluble
MSKGMFSASQSGFSTIEVYDLGPLNKIDLSIAKAGLEDTGGTVTFSVEQSLLDSLNNADGTSYQLLPPECYTIENATYSVSPGGDRRVTGGSLVYDPHKIYNLCGFDELKYVLPLRVSSTGTPMNSDRTATLYGFIVKEAIVRLASTGGDFVVEGGTTTSPMNLDTEISFENEWDLTTSFATKGADYVDNYNSANSTYYIPLPSDFYTLPDVTIAKGKTTGGSAISLLGETLPPGNYLLPVSLGGLSGQGDASINIDKETVANYFVIKQGGPINRDHWTVTANTEEKTGEVSAAYPHNGQTISLIDGEINTFWHSKWQGGEVAPPYEIILDMGKENSVSQLGLIARQNALTSMNLEIYAGDDGETWNLIGKYFFDGSIKTEQMVPVKACDARWIRIYIPTLGSGSSVGHLAEIYVYGTDKLEHHHHHH | soluble
MSKKFNGKVCLVTGAGGNIGLATALRLAEEGTAIALLDMNREALEKAEASVREKGVEARSYVCDVTSEEAVIGTVDSVVRDFGKIDFLFNNAGYQGAFAPVQDYPSDDFARVLTINVTGAFHVLKAVSRQMITQNYGRIVNTASMAGVKGPPNMAAYGTSKGAIIALTETAALDLAPYNIRVNAISPGYMGPGFMWERQVELQAKVGSQYFSTDPKVVAQQMIGSVPMRRYGDINEIPGVVAFLLGDDSSFMTGVNLPIAGG | soluble
MSKKVLIITGDAVEALEVYYPYYRLLEEGHDVTIAAPKKKKLHTVVHDFADWDTYVEKQGYLIDAHASFAEVDPAQYDALVIPGGRAPEYIRLDENVQRIVRHFFEANKPIAAICHASLIFETMPDLLKGRSLTAYIACKPGVEALGATYVSDNTVHVDGNLVSAHAWPDLPAFMREFLRLLQ | soluble
MSKLIEYDETARRAMEVGMDKLADTVRVTLGPRGRHVVLAKAFGGPTVTNDGVTVAREIELEDPFEDLGAQLVKSVATKTNDVAGDGTTTATILAQALIKGGLRLVAAGVNPIALGVGIGKAADAVSEALLASATPVSGKTGIAQVATVSSRDEQIGDLVGEAMSKVGHDGVVSVEESSTLGTELEFTEGIGFDKGFLSAYFVTDFDNQQAVLEDALILLHQDKISSLPDLLPLLEKVAGTGKPLLIVAEDVEGEALATLVVNAIRKTLKAVAVKGPYFGDRRKAFLEDLAVVTGGQVVNPDAGMVLREVGLEVLGSARRVVVSKDDTVIVDGGGTAEAVANRAKHLRAEIDKSDSDWDREKLGERLAKLAGGVAVIKVGAATETALKERKESVEDAVAAAKAAVEEGIVPGGGASLIHQARKALTELRASLTGDEVLGVDVFSEALAAPLFWIAANAGLDGSVVVNKVSELPAGHGLNVNTLSYGDLAADGVIDPVKVTRSAVLNASSVARMVLTTETVVVDKPAKAEDHDHHHGHAH | soluble
MSKNIGLNAIEMSYLRQSLSLSAAQVGQLTNHSEAEVLAWENAETQAPELAQKKLLDIDDIIEMQVLNTTDGIEALFKKEPKRHLAFVVYPTQAIYTQYNPEFLSSLPLTELYNTAAWRIKKECKLVLEVDVSLINLNVEAYKAYREQNGLSESRESRAKWAATQL | soluble
MSKNYHIAVLPGDGIGPEVMAQALKVMDAVRSRFDMRITTSHYDVGGIAIDNHGHPLPKATVEGCEQADAILFGSVGGPKWENLPPESQPERGALLPLRKHFKLFSNLRPAKLYQGLEAFCPLRADIAANGFDILCVRELTGGIYFGQPKGREGSGQYEKAFDTEVYHRFEIERIARIAFESARKRRRKVTSIDKANVLQSSILWREIVNDVAKTYPDVELAHMYIDNATMQLIKDPSQFDVLLCSNLFGDILSDECAMITGSMGMLPSASLNEQGFGLYEPAGGSAPDIAGKNIANPIAQILSLALLLRYSLDANDAATAIEQAINRALEEGVRTGDLARGAAAVSTDEMGDIIARYVAEGV | soluble
MSKQTAIRLPDETYERLKALSERTGRTSAYYIREAIEKHIEDMEDLYLAEEATRRIQRGESKIISAEEFWRDLDN | not soluble
MSKRVRSSLILPAVCGLGLAAVLLSSCSSKAPQQPARQAGISGPGDYSRPHRDGAPWWDVDVSRIPDAVPMPHNGSVKANPYTVLGKTYYPMNDARAYRMVGTASWYGTKFHGQATANGETYDLYGMTAAHKTLPLPSYVRVTNLDNGKSVIVRVNDRGPFYSDRVIDLSFAAAKKLGYAETGTARVKVEGIDPVQWWAQRGRPAPMVLAQPKQAVAQAAPAAAQTQAVAMAQPIETYTPPPAQHAAAVLPVQIDSKKNASLPADGLYLQVGAFANPDAAELLKAKLSGVTAAPVFISSVVRNQQILHRVRLGPIGSADEVSRTQDSIRVANLGQPTLVRPD | not soluble
MSKTAAITIDTPGADDFEPHRRHLYGLAYRMLGSWSEAEDIVQETWLRWREIDPATLDNARAFLSRIATRLCLDVLKSARVRRQVYVGPWLPEPLPDAQAYAGAAPGEIAHDVSVALMLALERLSASERAAFLLHDVFDVPFAEIAGTLGRTEAGCRQLAARARNRVRESRPRFAVEESEGIRLARAFIDAAQHGDVDVLRQLLADDAVLHSDGGGKKLAFMRPILGRANIVRAFAGLARKGQSDLSSVRIVQLNGMPAIYGIERDGLPRTISLGVCGGRIVRVYIMRNPDKLAHLARFTG | not soluble
MSKVALFAGGDLSYISRDFDYFVGIDRGSLFLLENGLPLNMAVGDFDSVSQKAFTDIKEKAELFITAHPEKNDTDTELALKEVFARFPEAEVTIFGAFGGRMDHLLSNIFLPSDPGIAPFMAQIALRDQQNMITYRPAGQHLIHQEEGMTYVAFMAEGEADLTITGAKFELTQDNFFKKKIYSSNAFIHQPITVSLPSGYLIIIQSKDWS | soluble
